Molecular target: MCAM (CD146), melanoma cell adhesion molecule (human (endogenous in HUVECs), UniProt P43121 24-646)
Assay: cell-based or functional assay

IL-6 secretion from HUVECs by ELISA, dose series of PNA, highest after 24 h with 8 μg/ml PNA: 3 fold | MCP-1 secretion from HUVECs by ELISA, dose series of PNA, highest after 24 h with 8 μg/ml PNA: 13 fold
B1: Peanut agglutinin (PNA), agarose-conjugated (natural protein, Arachis hypogaea, UniProt P02872 24-273, looked up)
chain: AETVSFNFNSFSEGNPAINFQGDVTVLSNGNIQLTNLNKVNSVGRVLYAMPVRIWSSATGNVASFLTSFSFEMKDIKDYDPADGIIFFIAPEDTQIPAGSIGGGTLGVSDTKGAGHFVGVEFDTYSNSEYNDPPTDHVGIDVNSVDSVKTVPWNSVSGAVVKVTVIYDSSTKTLSVAVTNDNGDITTIAQVVDLKAKLPERVKFGFSASGSLGGRQIHLIRSWSFTSTLITTTRRSIDNNEKKIMNMASA

— publication PMC8643467, “Appearance of peanut agglutinin in the blood circulation after peanut ingestion promotes endothelial secretion of metastasis-promoting cytokines” (Carcinogenesis, 2021)
